In patent publication US20110280881A1, “NOVEL ANTI-HSP90 MONOCLONAL ANTIBODY” (RIKEN, priority 2010, published 2011):

Tested on: DC2.4 cells and mouse GM-CSF-dependent BMDC
Assay: Influence of cytokines on expression of cell surface HSP90 (FACS with 6H8)
Format: cell-based
Conditions: BMDC, cytokines 100 ng/ml or 10 ng/ml
Description: In view of the possibility that cytokines are variation factors for the expression of cell surface HSP90, the influences of various cytokines on the expression of cell surface HSP90 were examined as described below.
The solid bars indicate the MFI for BMDC incubated in the presence of high concentrations of IFNs (as in FIG. 5B) or other cytokines (100 ng/ml); the grey bars indicate the MFI for BMDC incubated in the presence of low concentrations of IFNs (as in FIG. 5B) or other cytokines (10 ng/ml). The open bars indicate the MFI for BMDC incubated in the absence of the cytokines as negative controls.

Row | Molecule | MFI of cell surface HSP90 after cytokine treatment versus negative control
1 | IL-23: cytokine (protein, UniProt Q9NPF7 20-189; P29460 23-328, looked up) Interleukin-23 subunit alpha: RAVPGGSSPAWTQCQQLSQKLCTLAWSAHPLVGHMDLREEGDEETTNDVPHIQCGDGCDPQGLRDNSQFCLQRIHQGLIFYEKLLGSDIFTGEPSLLPDSPVGQLHASLLGLSQLLQPEGHHWETQQIPSLSPSQPWQRLLLRFKILRSLQAFVAVAARVFAHGAATLSP Interleukin-12 subunit beta: IWELKKDVYVVELDWYPDAPGEMVVLTCDTPEEDGITWTLDQSSEVLGSGKTLTIQVKEFGDAGQYTCHKGGEVLSHSLLLLHKKEDGIWSTDILKDQKEPKNKTFLRCEAKNYSGRFTCWWLTTISTDLTFSVKSSRGSSDPQGVTCGAATLSAERVRGDNKEYEYSVECQEDSACPAAEESLPIEVMVDAVHKLKYENYTSSFFIRDIIKPDPPKNLQLKPLKNSRQVEVSWEYPDTWSTPHSYFSLTFCVQVQGKSKREKKDRVFTDKTSATVICRKNASISVRAQDRYYSSSWSEWASVPCS | no significant difference from the negative control
2 | IL-10: cytokine (protein, UniProt P22301 19-178, looked up) Interleukin-10: SPGQGTQSENSCTHFPGNLPNMLRDLRDAFSRVKTFFQMKDQLDNLLLKESLLEDFKGYLGCQALSEMIQFYLEEVMPQAENQDPDIKAHVNSLGENLKTLRLRLRRCHRFLPCENKSKAVEQVKNAFNKLQEKGIYKAMSEFDIFINYIEAYMTMKIRN | no significant difference from the negative control
3 | IL-4: cytokine (protein, UniProt P05112 25-153, looked up) Interleukin-4: HKCDITLQEIIKTLNSLTEQKTLCTELTVTDIFAASKNTTEKETFCRAATVLRQFYSHHEKDTRCLGATAQQFHRHKQLIRFLKRLDRNLWGLAGLNSCPVKEANQSTLENFLERLKTIMREKYSKCSS | no significant difference from the negative control
